This assay deals with SARS-CoV-2 S protein (SARS-CoV-2) (UniProt P0DTC2). Nature of the assay: native MS.

Values joined by “and” are separate entries in the source; they are usually repeats but may differ in a detail not shown here. Identical values can stand only once.

The term stoichiometry N denotes the number of molecules, sites or subunits per partner or assembly. For “SARS-CoV-2 S protein (from UniProt P0DTC2) (natural protein)”, the stoichiometry N is 2 and 6.

These data come from paper PMC12434308 (Nature chemical biology, 2021).
